{"source": "paper doi:10.1101/2023.02.24.529973", "about": "(bioRxiv, 2023)", "proteins": {"B1": {"name": "Rv2067c, recombinant tagless protein (enzyme)", "chain": "TDDHPRADIVSRQYHRWLYPHPIADLEAWTTANWEWFDPVHSHRILWPDREYRPDLDILIAGCGTNQAAIFAFTNRAAKVVAIDISRPALDHQQYLKDKHGLANLELHLLPIEELATLGRDFDLVVSTGVLHHLADPRAGMKELAHCLRRDGVVAAMLYGKYGRIGVELLGSVFRDLGLGQDDASIKLAKEAISLLPTYHPLRNYLTKARDLLSDSALVDTFLHGRQRSYTVEECVDLVTSAGLVFQGWFHKAPYYPHDFFVPNSEFYAAVNTLPEVKAWSVMERLETLNATHLFMACRRDRPKEQYTIDFSTVAALDYVPLMRTRCGVSGTDMFWPGWRMAPSPAQLAFLQQVDGRRTIREIAGCVARTGEPSGGSLADLEEFGRKLFQSLWRLDFVAVALPASG"}}, "target": "the molecule itself", "assay": "SEC", "data": [{"protein": "B1", "values": [{"measurement": "stoichiometry N", "result": 2}]}]}
